Usually Kd stands for the equilibrium constant for the complex coming apart.

The test deals with PI3K (protein used in biolayer interferometry) (UniProt P26450 1-724). Put plainly: BLI; biolayer interferometry; format and conditions not told in the main text (Figure S4). For orientation: In BLI a coated tip is dipped into the sample, and binding shifts an interference pattern.
Sequence of PI3K (protein used in biolayer interferometry) (P26450 2-724): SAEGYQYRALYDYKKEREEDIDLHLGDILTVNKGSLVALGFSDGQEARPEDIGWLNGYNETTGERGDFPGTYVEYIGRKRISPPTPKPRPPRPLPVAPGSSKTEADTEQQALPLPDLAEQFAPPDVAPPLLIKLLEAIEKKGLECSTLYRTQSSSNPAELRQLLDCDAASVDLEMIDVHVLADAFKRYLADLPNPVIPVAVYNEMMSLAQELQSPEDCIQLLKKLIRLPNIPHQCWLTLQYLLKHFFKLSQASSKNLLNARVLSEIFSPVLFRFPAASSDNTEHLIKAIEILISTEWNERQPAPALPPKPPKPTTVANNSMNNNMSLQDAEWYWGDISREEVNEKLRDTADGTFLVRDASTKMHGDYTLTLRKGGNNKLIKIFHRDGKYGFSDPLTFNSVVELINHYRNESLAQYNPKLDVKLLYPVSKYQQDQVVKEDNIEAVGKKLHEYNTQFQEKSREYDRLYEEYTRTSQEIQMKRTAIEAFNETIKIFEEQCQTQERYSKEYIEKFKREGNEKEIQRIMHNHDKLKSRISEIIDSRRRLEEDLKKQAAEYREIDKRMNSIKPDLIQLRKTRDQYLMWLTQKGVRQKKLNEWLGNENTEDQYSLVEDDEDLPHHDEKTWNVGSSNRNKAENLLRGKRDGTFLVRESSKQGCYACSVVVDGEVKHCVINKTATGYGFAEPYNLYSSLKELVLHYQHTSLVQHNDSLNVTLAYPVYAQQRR

B1: Hmga2 (protein used in biolayer interferometry) (natural protein, UniProt P52927 1-108, looked up)
chain: MSARGEGAGQPSTSAQGQPAAPVPQKRGRGRPRKQQQEPTCEPSPKRPRGRPKGSKNKSPSKAAQKKAETIGEKRPRGRPRKWPQQVVQKKPAQETEETSSQESAEED
notes: Hmga2 as used in the biolayer interferometry assay; The main text has no methods for the BLI experiment
On to B1, for which the affinity, expressed as Kd, was 12 nM. This counts as double-digit nanomolar.

These data come from publication PMC12631878, “Single‐Cell Transcriptome Analysis Reveals That Hmga2 Regulates Neuroinflammation and Retinal Function by Modulating Müller Cell Autophagy Through PI3K/AKT Signaling Following MCAO‐Induced Retinal Ischemia” (Advanced Science, 2025).
